Data from patent publication US20240366778A1 (CSPC MEGALITH BIOPHARMARCEUTICAL, published 2024).
Residue numbers refer to the chain shown, from its start. Values belong to the binder of their own block, whether it stands above or below them.

Experiments:
[1] = target: T1, Recombinant Rat Nectin-4 His-tag Protein, CF (rat, UniProt D3ZET1 31-348); assay: ELISA, Nectin-4 protein with antibody dilutions, goat anti-human IgG secondary antibody
T1 construct: not shown: His tag
T1 sequence: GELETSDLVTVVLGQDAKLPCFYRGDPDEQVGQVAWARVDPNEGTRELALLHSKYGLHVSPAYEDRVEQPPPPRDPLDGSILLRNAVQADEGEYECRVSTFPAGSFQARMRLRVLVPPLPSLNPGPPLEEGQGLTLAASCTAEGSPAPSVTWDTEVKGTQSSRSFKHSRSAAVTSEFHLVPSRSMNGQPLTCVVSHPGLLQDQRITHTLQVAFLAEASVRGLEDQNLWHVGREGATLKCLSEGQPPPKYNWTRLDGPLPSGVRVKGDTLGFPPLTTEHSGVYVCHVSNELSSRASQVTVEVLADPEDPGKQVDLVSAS
Method: (§1) The affinities of Nectin-4 humanized antibodies to Nectin-4 proteins of different species were performed by ELISA. Nectin-4 proteins of different species (human Nectin-4, cynomolgus Nectin-4, rat Nectin-4, mouse Nectin-4) were incubated with Nectin-4 humanized antibody samples of different concentrations, and then incubated with the secondary antibody which binds IgG (Goat anti-Human IgG (H+L) Cross-Adsorbed Secondary Antibody. The signal values of different concentrations were detected by ELISA to analyze the affinities of the samples to Nectin-4 proteins of different species. The experimental results are shown in Table 6, showing that the Nectin-4 humanized antibodies have good affinity for human, rat and cynomolgus Nectin-4 proteins.

[2] = target: T2, Mouse Nectin-4 Protein, His Tag (mouse, UniProt Q8R007 31-347); assay: as above
T2 construct: not shown: His tag
T2 sequence (looked up): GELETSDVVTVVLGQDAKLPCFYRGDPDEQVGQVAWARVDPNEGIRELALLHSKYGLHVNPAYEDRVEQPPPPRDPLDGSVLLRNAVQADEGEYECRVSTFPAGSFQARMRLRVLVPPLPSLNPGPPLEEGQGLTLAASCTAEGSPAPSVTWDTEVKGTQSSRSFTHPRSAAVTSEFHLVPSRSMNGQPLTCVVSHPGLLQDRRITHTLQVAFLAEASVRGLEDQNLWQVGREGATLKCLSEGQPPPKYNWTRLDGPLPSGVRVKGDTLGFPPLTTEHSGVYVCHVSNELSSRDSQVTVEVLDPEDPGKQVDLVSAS
Method: as §1

[3] = target: T3, Cynomolgus Nectin-4 Protein, His Tag (cynomolgus, UniProt A0A2K5WES1 32-349); assay: as above
T3 construct: not shown: His tag
T3 sequence: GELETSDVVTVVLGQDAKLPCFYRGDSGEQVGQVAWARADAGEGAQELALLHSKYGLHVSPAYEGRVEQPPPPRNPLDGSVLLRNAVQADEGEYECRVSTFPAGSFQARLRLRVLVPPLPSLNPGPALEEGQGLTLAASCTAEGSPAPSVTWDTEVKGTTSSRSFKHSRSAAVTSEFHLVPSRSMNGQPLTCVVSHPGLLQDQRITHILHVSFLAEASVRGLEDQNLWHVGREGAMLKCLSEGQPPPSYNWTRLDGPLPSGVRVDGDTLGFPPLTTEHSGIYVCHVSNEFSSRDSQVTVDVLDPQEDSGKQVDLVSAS
Method: as §1

[4] = target: T4, Human Nectin-4 Protein, His Tag (human, UniProt Q96NY8 32-349); assay: as above
T4 construct: not shown: His tag
T4 sequence (looked up): T3 sequence with A39V, V230I
Method: as §1

[5] = target: T4, Human Nectin-4 Protein, His Tag; assay: BLI (Fortebio), antibody with human Nectin-4 protein
Method: In this experiment, Fortebio was used to detect the affinity of Nectin-4 humanized antibodies to human Nectin-4 protein. After the Nectin-4 protein was incubated with the anti-Nectin-4 antibody sample, the signal value was detected by Fortebio to analyze the affinity of the sample to human Nectin-4. […] The chimeric antibodies were engineered on the basis of mouse-derived antibodies, and the constant region is selected from human IgG1.

[6] = target: T5, Recombinant Rat Nectin-4 His-tag Protein, CF (rat) (UniProt D3ZET1); assay: ELISA, Nectin-4 protein with antibody dilutions, goat anti-human IgG secondary antibody
T5 sequence: T1 sequence

[7] = target: Cynomolgus Nectin-4 Protein, His Tag (cynomolgus); assay: as above

B1: humanized antibody SWY2001-Ab3 (antibody, human IgG1, kappa, V domains shown)
VH: QVQLVQSGAEVKKPGASVKVSCKASGYTFTSYYIHWVRQAPGQRLEWMGWIYPGNVNTKYNENFRDRVTITRDTSASTAYMELSSLRSEDTAVYYCARGIYYFDYWGQGTLVTVSS
VL: AIQMTQSPSSLSASVGDRVTITCKASQSVNNDVAWYQQKPGKAPKLLIYYASNRDTGVPSRFSGSGSGTDFTLTISSLQPEDFATYFCHQDYSSPFTFGGGTKVEIKR
notes: Full-length IgG1, kappa
EC50 [1]: 0.000942 µg/mL
EC50 [2]: 2210 µg/mL
EC50 [3]: 0.000832 µg/mL
EC50 [4]: 0.00102 µg/mL
Kd [5]: 5.08 nM
koff [5]: 0.00425 s⁻¹
kon [5]: 836000 M⁻¹ s⁻¹

B4: PADCEV (antibody, INN chains, looked up, V domains shown)
VH: EVQLVESGGGLVQPGGSLRLSCAASGFTFSSYNMNWVRQAPGKGLEWVSYISSSSSTIYYADSVKGRFTISRDNAKNSLSLQMNSLRDEDTAVYYCARAYYYGMDVWGQGTTVTVSS
VL: DIQMTQSPSSVSASVGDRVTITCRASQGISGWLAWYQQKPGKAPKFLIYAASTLQSGVPSRFSGSGSGTDFTLTISSLQPEDFATYYCQQANSFPPTFGGGTKVEIKR
modifications: vedotin (MMAE) payload
EC50 [6]: 0.00101 µg/mL
EC50 [7]: 0.000968 µg/mL
EC50 [2]: 0.0824 µg/mL
EC50 [4]: 0.000877 µg/mL

B5: Chimeric antibody (antibody, V domains shown)
VH: QVQLQQSGPVLVKPGASVRISCKASGYTFTSYYIHWVKQRPGQGLEWIGWIYPGNVNTKYNENFRDKATLTADKSSSTSYMQLSSLTSEDSAVYFCARGIYYFDYWGQGTTLTVSS
VL: IIVMTQTPKFLLVSAGDRVTITCKASQSVNNDVAWYQEKPGQSPKLLIYYASNRDTGVPDRFTGSGYGTDFTFTISTVQAEDLAVYFCHQDYSSPFTFGSGTKLEIK
notes: also called chimeric anti-Nectin-4 antibody; murine antibody variable regions on human IgG1
Kd [5]: 2.8 nM
koff [5]: 0.00181 s⁻¹
kon [5]: 646000 M⁻¹ s⁻¹

Other lines, results leading:

EC50 [1]: 0.000726 µg/mL
EC50 [2]: 1050 µg/mL
EC50 [3]: 0.000646 µg/mL
EC50 [4]: 0.00113 µg/mL
Kd [5]: 5.51 nM
koff [5]: 0.00414 s⁻¹
kon [5]: 752000 M⁻¹ s⁻¹
B2: humanized antibody SWY2001-Ab2 (antibody, human IgG1, kappa, V domains shown)
VH: B1 VH
VL: B1 VL with P80A, F83L, T85V
notes: Full-length IgG1, kappa

EC50 [1]: 0.000857 µg/mL
EC50 [3]: 0.000647 µg/mL
EC50 [4]: 0.00121 µg/mL
Kd [5]: 5.92 nM
koff [5]: 0.00447 s⁻¹
kon [5]: 756000 M⁻¹ s⁻¹
B3: humanized antibody SWY2001-Ab1 (antibody, human IgG1, kappa, V domains shown)
VH: B1 VH
VL: B1 VL with A1I, S9K, S10F, K42Q, A43S, S60D
